Target: CD81 on Huh7.5 cells (human) (UniProt P60033)
Experiment: cell-based or functional assay

UniProt P60033, sequence (P60033 whole entry): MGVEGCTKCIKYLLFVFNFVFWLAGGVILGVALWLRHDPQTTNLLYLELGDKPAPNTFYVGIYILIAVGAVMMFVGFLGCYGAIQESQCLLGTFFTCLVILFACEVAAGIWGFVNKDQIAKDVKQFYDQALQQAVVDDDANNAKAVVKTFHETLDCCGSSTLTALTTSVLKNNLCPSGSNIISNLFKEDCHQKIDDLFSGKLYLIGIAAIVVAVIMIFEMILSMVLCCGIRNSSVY

anti-CD81 (JS-81; BD Biosciences Pharmingen, Franklin Lakes, N.J.) (antibody)
% inhibition of infection of Huh7.5 cells (FFU) with genotype 2a recombinant J6/JFH1 at 0.02 µg/mL anti-CD81: < 50 % inhibition
% inhibition of infection of Huh7.5 cells (FFU) with genotype 2a recombinant J6/JFH1 at 2.5 µg/mL anti-CD81: > 90 % inhibition
% inhibition of infection of Huh7.5 cells (FFU) with genotype 7a recombinant QC69/JFH1 at 0.02 µg/mL anti-CD81: < 50 % inhibition
% inhibition of infection of Huh7.5 cells (FFU) with genotype 7a recombinant QC69/JFH1 at 2.5 µg/mL anti-CD81: > 90 % inhibition
